According to article PMC12671567 (Cancer research, 2026):

Each binder was assayed against recombinant human Siglec-10 protein (Siglec-10 antigen coated in ELISA) (Homo sapiens (Human)., UniProt Q96LC7) (assay: not given).
Sequence of recombinant human Siglec-10 protein (Siglec-10 antigen coated in ELISA) (Q96LC7 17-550): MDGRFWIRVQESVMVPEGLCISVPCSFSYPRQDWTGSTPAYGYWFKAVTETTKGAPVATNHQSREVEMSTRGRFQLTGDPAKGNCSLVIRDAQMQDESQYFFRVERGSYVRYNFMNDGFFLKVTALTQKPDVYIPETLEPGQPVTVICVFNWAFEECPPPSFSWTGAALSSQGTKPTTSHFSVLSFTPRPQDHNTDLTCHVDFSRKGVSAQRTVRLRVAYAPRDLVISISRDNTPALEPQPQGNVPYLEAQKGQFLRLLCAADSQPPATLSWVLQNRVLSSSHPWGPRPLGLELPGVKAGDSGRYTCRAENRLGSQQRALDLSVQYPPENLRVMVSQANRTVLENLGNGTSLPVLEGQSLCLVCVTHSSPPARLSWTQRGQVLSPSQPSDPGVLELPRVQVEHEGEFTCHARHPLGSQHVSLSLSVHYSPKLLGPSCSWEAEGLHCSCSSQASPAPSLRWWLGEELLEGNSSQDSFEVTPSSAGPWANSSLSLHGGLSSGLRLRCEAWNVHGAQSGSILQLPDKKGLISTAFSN

Binder	binding result
31E6H8 (antibody, V domains shown) VH: EVKLVESGGGLVQPGGSLSLSCAASGFTFTDYYMTWVRQPPGKALEWLGFIRNKANGYTTEYSASVKGRFTISRDNSQSILSLQMNALSAEDSATYYCASLVLRGFAYWGQGTLVTVSA VL: not shown	binds
56C3E6 (antibody, V domains shown) VH: EVNLVESGGGLVQPGDSLSLSCATSGFTFTDYYMSWVRQPPGKALEWLGFIRNKANGYTTEYSASVKGRFTISRDNSQSILYLQMNALRPEDSATYYCASPVLRGFAYWGRGTLVTVSA VL: DIQMTQSPASLSASVGETVTITCRASGNIHNYLAWYQQKQGKSPQLLVYNAKTLADGVPSRFSGSGSGTQYSLKINSLQPEDFGSYYCQHFWSTPFTFGSGTKLEIK	binds
66E8F8 (antibody, V domains shown) VH: EVKLVESGGGLVQPGGSLSLSCAASGFTFTDYYMSWVRQPPGKALEWLCFIRNKANGYTTEYSASVKGRFTISRDNSQSILYLQVNALRAEDSATYYCATYVLRGLAYWGQGTLVTVSA VL: not shown	binds
36F7B3 (antibody, V domains shown) VH: EVKLVESGGGLVQPGGSLSLSCAASGFTFTDYYMTWVRQPPGKALEWLCFIRNKANGYTTEYSASVKGRFTISRDNSQSILYLQVNALRAEDSATYYCATYVLRGLAYWGQGTLVTVSA VL: not shown	binds
35G6G1 (antibody, V domains shown) VH: EVKLVESGGGLVQPGGSLSLSCAASGFTFADYYMTWVRQPPGKALEWLGFIRNKANGFTTEYSASVKGRFTISRDNSQSILYLQMNALRAEDSATYYCARYGLRGFAYWGQGTLVTVSA VL: DIVMTQSPSSLAMSVGQKVTLNCKSSQSLLNSSNQKNYLAWYQQKPGQSPKLLVYFASTRESGVPDRFIGSGSGTDFTLTISSVQAEDLADYFCHQHYSTPFTFGSGTKLEMK	binds
22F1A9 (antibody, V domains shown) VH: EVQLVESGGGLVKPGGSLKLSCAASGFTFSSYAMSWVRQTPEKRLEWVATISDGGSYTYYPDNVKGRFTISRDNTKNNLYLQMSHLKSEDTAMFYCARDLSPLYYRGPMDYWGQGTSVTVSS VL: DIQMTQSPASLSASLGERVSLTCRASQDIGSSLNWLQQEPDGTIKRLIYATSSLDSGVPKRFSGSRSGSDYSLTISSLESEDFVDYYCLQYASSPFTFGSGTKLEIK	binds
38B2G5 (antibody, V domains shown) VH: QVQLQQSGAEVAKPGASVKLSCKASGYTFTSYWMHWVKQRPGQGLEWIGYINPSNNYTKYNQKFNDKATLTADKSSSTAYMQLSSLTYEDSALYYCARVYYYGNSPAWFAYWGQGTLVTVSA VL: QIVLSQSPAILSASPGEKVTMTCRASSSVSYMHWYQQKPGSSPKPWIYATSNLASGVPARFSGSGSGTSYSLTISRVEAEDAATYYCQQWTSNPPTFGGGTKLEIK	binds
35B3F9 (antibody, V domains shown) VH: EVKLVESGGGLVQPGGSLRLSCAASGFTFTDYYMSWVRQPPGKALEWLGFIRNKVSGYTTDNSASVKGRFTISRDDSQSIVYLQMNDLRAEDSATYYCARYVSLWLLGYFDVWGTGTTVTVSS VL: DVQITQSPSYLAASPGETITINCRASKSISKYLAWYQEKPGKTNKLLIYSGSTLQSGIPSRFSGSGSGTDFTLTISSLEPEDFAMYYCQQHNEYPLTFGTGTKLELK	binds
54C2F11 (antibody, V domains shown) VH: EVRLVESGGGLVQPGGSLRLSCAASGFTFTDYYMSWVRQPPGKALEWLGFIRNKPSGYTTEYSASVKGRFTISRDNSQSILYLQMNALRAEDSATYYCARYISLWLLGYLDVWGTGTTVTVSS VL: DVQITQSPSYLAASPGETIIINCRTSKSISKYLAWYQEKPGKTNKLLIYSGSTLQSGIPSRFSGSGSGTDFTLTISSLEPEDFAMYYCQQHNEYPLTFGAGTKLELN	binds
68B1E2 (antibody, V domains shown) VH: EVKLVESGGGLVQPGGSLSLSCAASGFTFTDYYMSWVRQPPGKALEWLGFIRNKASGYTTEYNASVKGRFTISRDNSQNILYLQMNALRAEDGATYYCVRYISLWLLGYFDVWGTGTTVTVSS VL: DVQITQSPSYLAASPGETITINCRASKSISKYLAWYQEKPGKTNKLLIYSGSTLQSGIPSRFSGSGSGTDFTLTISSLEPEDFAMYYCQQHNDYPLTFGAGTKLELK	binds

Second part, the binder after the results:

binding result	Binder
binds	48D6F4 (antibody, V domains shown) VH: EVRLVESGGGLVQPGGSLRLSCAASGFTFTDYYMSWVRQPPGKALEWLGFIRNKPSGYTTEYSASVKGRFTFSRDNSQSILYLQMNALRAEDSATYYCARYISLWLLGYLDVWGTGTTVTVSS VL: DVQITQSPSYLAASPGETIIINCRTSKSISKYLAWYQEKPGKTNNLLIYSGSTLQSGIPSRFSGSGSGTDFSLTISSLEPEDFAIYYCQQHNEYPLTFGAGTKLELN
binds	38D6A8 (antibody, V domains shown) VH: EVKLVESGGGLVQPGGSLSLSCAASGFTFTDYYMSWVRQPPGKALEWLGFIRNKASGYTTEYSASVKGRFTISRDNSQNILYLQMNALRAEDGATYYCVRYISLWLLGYFDVWGTGTTVTVSS VL: DVQITQSPSYLAASPGETITINCRASKSISKYLAWYQEKPGKTNKLLIYSGSTLQSGIPSRFSGSGSGTDFTLTISSLEPEDFAMYYCQQHNDYPLTFGAGTKLELK
binds	73D4G2 (antibody, V domains shown) VH: EVRLVESGGGLVQPGGSLRLSCAASGFTFTDYYMSWVRQPPGKALEWLGFIRNKPSGYTTEYSASVKGRFTISRDNSQSILYLQMNALRAEDSATYYCARYISLWLLGYLDVWGTGTTVTVSS VL: DVQITQSPSYLAASPGETIIINCRTSKSISKYLAWYQEKPGKTNKLLIYSGSTLQSGIPSRFSGSGSGTDFTLTISSLEPEDFAMYYCQQHNEYPLTFGAGTKLELK

These binders were tested against Siglec-5 antigen (recombinant Siglec-5 protein coated in ELISA) (Homo sapiens (assumed), UniProt O15389) (assay: ELISA).
Sequence of Siglec-5 antigen (recombinant Siglec-5 protein coated in ELISA) (O15389 17-551): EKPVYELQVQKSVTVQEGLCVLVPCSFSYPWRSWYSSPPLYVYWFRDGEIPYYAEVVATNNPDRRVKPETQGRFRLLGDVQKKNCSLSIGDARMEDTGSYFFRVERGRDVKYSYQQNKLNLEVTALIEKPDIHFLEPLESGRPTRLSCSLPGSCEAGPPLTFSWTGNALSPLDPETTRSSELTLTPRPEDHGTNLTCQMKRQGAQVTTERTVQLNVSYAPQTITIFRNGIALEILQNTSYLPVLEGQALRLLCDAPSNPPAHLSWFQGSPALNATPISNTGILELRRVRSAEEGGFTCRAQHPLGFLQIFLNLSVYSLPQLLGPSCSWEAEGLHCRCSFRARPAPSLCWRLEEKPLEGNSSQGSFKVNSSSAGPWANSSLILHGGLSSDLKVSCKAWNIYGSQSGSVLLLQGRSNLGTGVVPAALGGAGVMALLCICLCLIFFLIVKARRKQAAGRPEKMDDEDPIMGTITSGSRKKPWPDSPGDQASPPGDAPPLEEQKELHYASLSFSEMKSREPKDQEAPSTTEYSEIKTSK

binding result	Binder
no binding	recombinant 68A11A1 antibody (IgG1 isotype), anti-Siglec-10 monoclonal antibody (antibody, V domains shown) VH: EVKLVESGGGLVQPGGSLSLSCAASGFTFTDYYMSWVRQPPGKALEWLGFIRNKVSGYTTDYSSSVKGRFTFSRDNSQSIVYLHMNALRAEDSATYYCTRYVSLWLLGYFDVWGTGTTVTVSS VL: DVQLTQSPSYLAASPGETITINCRTSKSISKYLAWYQEKPGKTNKLLIYSGSTLQSGIPSRFSGSGSGTDFTLTISSLEPEDFAMYYCQQHNEYPLTFGAGTKLELK
